In US20250262210A1 (TRUSTEES OF COLUMBIA UNIVERSITY IN THE CITY OF NEW YORK, published 2025):

Legend:
HECTD3 = target: T1, HECTD3 (human, UniProt Q5T447 2-861, limits assumed); experiment: IP/MS, LZTR1 R810W-FLAG, U87
T1 sequence (looked up): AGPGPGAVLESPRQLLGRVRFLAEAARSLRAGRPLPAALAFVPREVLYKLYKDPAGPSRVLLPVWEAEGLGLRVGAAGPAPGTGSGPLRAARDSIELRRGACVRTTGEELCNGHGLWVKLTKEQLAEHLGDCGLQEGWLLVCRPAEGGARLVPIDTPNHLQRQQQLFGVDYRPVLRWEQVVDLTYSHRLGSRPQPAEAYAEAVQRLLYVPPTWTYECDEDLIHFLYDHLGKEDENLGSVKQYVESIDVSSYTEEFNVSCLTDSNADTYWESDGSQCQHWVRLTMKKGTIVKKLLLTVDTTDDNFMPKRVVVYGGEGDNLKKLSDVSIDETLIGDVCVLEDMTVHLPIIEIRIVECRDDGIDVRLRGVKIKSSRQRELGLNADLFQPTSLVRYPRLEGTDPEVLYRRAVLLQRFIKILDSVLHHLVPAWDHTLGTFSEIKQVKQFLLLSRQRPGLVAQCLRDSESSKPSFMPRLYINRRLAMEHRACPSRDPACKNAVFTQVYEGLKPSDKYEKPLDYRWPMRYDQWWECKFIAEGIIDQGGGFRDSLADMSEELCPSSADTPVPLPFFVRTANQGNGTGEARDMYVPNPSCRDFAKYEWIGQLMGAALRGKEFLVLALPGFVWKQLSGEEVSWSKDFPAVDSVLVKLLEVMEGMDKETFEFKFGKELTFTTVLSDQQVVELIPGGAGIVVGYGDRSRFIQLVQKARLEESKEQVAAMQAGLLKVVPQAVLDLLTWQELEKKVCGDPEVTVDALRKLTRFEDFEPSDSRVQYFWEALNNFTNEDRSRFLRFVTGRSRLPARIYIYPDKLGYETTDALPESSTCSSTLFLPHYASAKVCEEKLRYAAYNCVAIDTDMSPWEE
Procedure, shortened: (§1)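 Gel slices were reduced with 5 mM DTT, alkylated with 11 mM IAA and digested overnight at 37° C. with trypsin. Peptides were analysed on an Orbitrap Fusion Tribrid by LC-MS/MS.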

NCAPD3 = target: T2, NCAPD3 (human, UniProt P42695 1-1498); experiment: IP/MS, LZTR1 R810W-FLAG, U87
T2 sequence (looked up): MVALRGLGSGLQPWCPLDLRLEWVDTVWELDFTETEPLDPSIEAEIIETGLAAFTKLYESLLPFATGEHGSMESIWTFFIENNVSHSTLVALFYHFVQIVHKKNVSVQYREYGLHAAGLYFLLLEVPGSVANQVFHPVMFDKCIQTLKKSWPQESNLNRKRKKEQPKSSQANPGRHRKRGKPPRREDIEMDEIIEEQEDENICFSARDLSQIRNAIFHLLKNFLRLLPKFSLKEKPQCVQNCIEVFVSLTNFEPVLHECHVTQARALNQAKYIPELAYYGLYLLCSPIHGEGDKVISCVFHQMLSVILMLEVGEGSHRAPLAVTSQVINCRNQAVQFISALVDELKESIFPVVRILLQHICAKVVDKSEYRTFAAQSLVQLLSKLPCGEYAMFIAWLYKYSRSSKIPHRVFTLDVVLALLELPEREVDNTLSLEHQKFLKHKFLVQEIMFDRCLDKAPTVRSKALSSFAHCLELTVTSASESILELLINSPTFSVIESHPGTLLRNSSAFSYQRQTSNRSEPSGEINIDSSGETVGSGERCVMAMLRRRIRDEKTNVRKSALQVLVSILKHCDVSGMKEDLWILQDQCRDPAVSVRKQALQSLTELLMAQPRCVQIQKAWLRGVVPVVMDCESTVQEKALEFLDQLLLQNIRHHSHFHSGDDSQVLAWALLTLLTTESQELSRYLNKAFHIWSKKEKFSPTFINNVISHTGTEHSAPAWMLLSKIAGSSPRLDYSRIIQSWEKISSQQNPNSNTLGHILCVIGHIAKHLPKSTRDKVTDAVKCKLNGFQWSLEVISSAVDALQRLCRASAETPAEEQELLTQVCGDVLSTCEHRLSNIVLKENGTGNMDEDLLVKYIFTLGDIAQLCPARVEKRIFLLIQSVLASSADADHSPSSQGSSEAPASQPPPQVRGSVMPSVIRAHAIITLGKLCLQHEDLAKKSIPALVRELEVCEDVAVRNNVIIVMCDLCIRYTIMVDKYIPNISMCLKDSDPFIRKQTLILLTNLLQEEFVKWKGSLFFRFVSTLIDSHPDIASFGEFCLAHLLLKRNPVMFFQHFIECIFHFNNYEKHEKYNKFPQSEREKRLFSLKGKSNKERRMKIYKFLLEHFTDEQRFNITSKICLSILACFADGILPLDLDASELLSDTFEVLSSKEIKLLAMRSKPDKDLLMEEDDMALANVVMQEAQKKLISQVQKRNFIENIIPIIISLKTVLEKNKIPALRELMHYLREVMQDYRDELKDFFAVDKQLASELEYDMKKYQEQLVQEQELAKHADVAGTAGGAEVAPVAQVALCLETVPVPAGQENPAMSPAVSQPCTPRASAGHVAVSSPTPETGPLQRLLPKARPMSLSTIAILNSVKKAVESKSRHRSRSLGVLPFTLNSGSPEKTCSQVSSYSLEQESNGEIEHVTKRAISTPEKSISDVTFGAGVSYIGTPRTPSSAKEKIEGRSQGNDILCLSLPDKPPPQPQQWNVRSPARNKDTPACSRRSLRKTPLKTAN
Procedure, shortened: as §1

B1: LZTR1 R810W-FLAG (other, human, UniProt Q8N653 1-840, looked up)
chain: MAGPGSTGGQIGAAALAGGARSKVAPSVDFDHSCSDSVEYLTLNFGPFETVHRWRRLPPCDEFVGARRSKHTVVAYKDAIYVFGGDNGKTMLNDLLRFDVKDCSWCRAFTTGTPPAPRYHHSAVVYGSSMFVFGGYTGDIYSNSNLKNKNDLFEYKFATGQWTEWKIEGRLPVARSAHGATVYSDKLWIFAGYDGNARLNDMWTIGLQDRELTCWEEVAQSGEIPPSCCNFPVAVCRDKMFVFSGQSGAKITNNLFQFEFKDKTWTRIPTEHLLRGSPPPPQRRYGHTMVAFDRHLYVFGGAADNTLPNELHCYDVDFQTWEVVQPSSDSEVGGAEVPERACASEEVPTLTYEERVGFKKSRDVFGLDFGTTSAKQPTQPASELPSGRLFHAAAVISDAMYIFGGTVDNNIRSGEMYRFQFSCYPKCTLHEDYGRLWESRQFCDVEFVLGEKEECVQGHVAIVTARSRWLRRKITQARERLAQKLEQEAAPVPREAPGVAAGGARPPLLHVAIREAEARPFEVLMQFLYTDKIKYPRKGHVEDVLLIMDVYKLALSFQLCRLEQLCRQYIEASVDLQNVLVVCESAARLQLSQLKEHCLNFVVKESHFNQVIMMKEFERLSSPLIVEIVRRKQQPPPRTPLDQPVDIGTSLIQDMKAYLEGAGAEFCDITLLLDGHPRPAHKAILAARSSYFEAMFRSFMPEDGQVNISIGEMVPSRQAFESMLRYIYYGEVNMPPEDSLYLFAAPYYYGFYNNRLQAYCKQNLEMNVTVQNVLQILEAADKTQALDMKRHCLHIIVHQFTKVSKLPTLWSLSQQLLLDIIDSLASHISDKQCAELGADI
notes: Stably expressed in U87 cells by lentivirus; also called LZTR1-FLAG-R810W; LZTR1 RW; not shown: FLAG tag
binding result (HECTD3): binds
binding result (NCAPD3): binds
